Measurements from the DeepSol protein solubility set.

Assay: soluble on expression in E. coli; label from the status in PepcDB or PDB records

Soluble on expression in E. coli, not soluble:
GPGSMFGRSALCLAKRFRYNTKYPSLVSYNKLPWEILNHETPEFHMHVAPHYEQIMTLAASTHVPHIVGKKHLEMPPEHRLRLLPGMFYMLDGDSIPEGFTANRVLDPTALQYYGRLESLVAPVQAVRMLISDDLRIVCNSVTLQGPLQLPVASYASLASLEVVTNKASASFTLFHFVRPNRPPSELQLEKYYIHAPRAMALAEFNSTSNTSWEPKLQAPKRSKRVTPLPAYRPPQSYLMGLAERLAVVPGSSFGRRSLMWGHWF
MGSDKIHHHHHHMEENKQTLYNDELLDILPDGVIIFNISGEVIQLNRQALTELHVHSSVNAMMPLPTNILFKLLNNKEDILSVILEKIRQGEQTYSLSEHTFMQEQVDYTQFPIRGDFATIKEDGNLKKILFFFRNITVELTQEYILNTALQRTRIYPWYYDINRSEFTLDNRYFEHLGISAGENNTLTMEEYVNMIHPDDRQAMADAFIVQLSGMETFDKSVPFRLHRGDGTWEWFEGQSTYIANISGHPYRLVGICMSIQEYKDIENTLIEARKKAEESDRLKMAFLANMSHEIRTPLNAIVGFSDVIGSTYDELSEEERADFVRLISINSEHLVRLIDDVLDLSKIESNTIKFTFTDCSLRSLMIDVEKEQTMKPISEIEIRALLPNEDVYINTDATRLKQVISNFINNARKFTEKGYIHFGYAVDSVDASSVHVFVEDTGSGIPKECQKEIFDRFYKVDTFKQGTGLGLSICKTIVEHLQGDISVESEMGKGSRFIVTLPFERQTED
MGSDKIHHHHHHMTSTLPVPEPHQSDSANTDANSLSWEEELDSAIFSFEDIQTELNYKQAQTALRNLVANLDLTPQEKTGLETEIADLETMLGKLDRMVVQIAAFGMVGRGKSSLLNSLVGQTVFETGPLHGVTRTAQTVNWSISEEAIGETERALRVTLPGVGQSQVKLIDTPGLDEVDGATRAVLAEQIAKQADLILFVISGDMTKLEYAALSQLREAGKPIILVFNKVDQYPEADRMAIYHKIRDERVRELLTPLEIVMAAASPLVKTAIRRPDGTRGIQLRTGNAQVEELKLKILEILHREGKALVALNTMLYADVVNEQLIERKLMIREQNANQLIWKAVMTKALAIALNPVTVVDILSSVVIDIALILGLSKLYGFSMTEAGAVQLLQKIALSMGGIGASELLANLGLSGLKTLLGISATATAGVALGPYISVAVTQGGVAGVSSYGIGQVTKVYLANGATWGPDGPKAVINRILANLDETSILNRIKDELLHKVRLRK
MGSDKIHHHHHHMTKRHTETKAYVKTALTTLLTEQSFETLTVSDLTKKAGINRGTFYLHYTDKFDMMNHFKNDTLDDLYRLLNQAEIYTDTRQVLNQTLSYLIEHREFITALATISYLKFPQLIKDFCYQFLTTITGFQDIVTNQYHIPYPYALEVYLASIESIISYWIANGYQETTEEVADIILKAVTLDN
MGSDKIHHHHHHMKIQQPSVLIPDPCNNPLAYYAIRCLKQANSEFNINVIVSSGQTLDDNEWLYFYKYSAYIDNLVVSANSMNSLEYLDEVIRIIENQGINLIFPASEEGFKFVSKYRYKLSKFCRIVALPSEENLDAAFDKWKLHLLLQKHNIPTPETVLLKEIENISQFNYPVILKPVDGSGGKNIQKFDSLEEENFQAICNYPNDVYIVQKYVPGHDIGCSVLCQDGQVLAYTIQQQLGLTEGFTPKIDKLKFVHDSAVIDIVTKTMNVLKWSGIANLDLRYNSQTGQINVIEINPRFWQSLMGSLSVGVNFPYILYLLSNNISFERISYKEQYYAKFHRFIQDAFNGSLEYSLSDTNVKYFLSDPSGILHFLFYKLMKQKLFQNMKSIFSLQSQKIQNVK
QPVACPDCGPTLRLVDASGAGLPGDPVDQTVELLTEGKIVAIKGLGGYHLAVDAANDAAVAELRRRKHRDEKPFAVMARDMEAVARFALVDSVEARLLTGPEHPIVLLRKRPSTILSGRVAPANGYIGTMLPYTPLHHLLLEERFAALVMTSGNLSDEPISYRDDEAVERLSAIADAFLVHDREIRTRIDDSVIRVFRGSPLFLRRSRGYVPREVRLPVEIP

Soluble on expression in E. coli, soluble:
MSLRIKNNEVAVYAIGGLHEIGKNMYCVQYQDEIIIMDCGIKFPEDDLLGINYVISDYSYLIKNRKKIKALVVSHGHEDHIGGIPFLLEKIPEIPVYATPFALSLIRGKLEEHGILKTTELHEEHEDTVLKFKKLSVSFFRTTHSIPDTLGIAVHTPLGAVVFTGDFKFDLTPVMDQPAPDFQKMAKLGNEGVLALLSDSTNAEVTQFTKSERFVAQSLHNIITGIHGRIIFATFASNLYRVSTAIQAAIDTGRKVAIFGRSMENGVDNGIDLGYLDIPKDLIVDAEEINKLPPDKVMILCTGSQGEPLAALSRIANGTHRQITLQPGDTVIFSSNPIPGNTLSVNHLINKLMEGGANVIHGRVNNVHTSGHGGQEELKMMVRLTKPKYMIPVHGEYRMQVIHTQLAQQAGVPAENTFVLSNGEVVCFGPNGARLAGRIPAGDVYVDTSGTADVGNVVVHDRQILSEEGLVVAVATVDYKHKRVLAGPDILSRGFVYMRESTELISQAQKHVYHVLRNEMSKSDKPKESEIKKAITENLSDFLYSKTERRPMILPIIIEKEGHHHHHH
MAPLFAVTLYEFKAERDDELDVSPGENLSICAHYDYEWFIAKPINRLGGPGLVPVSYVRIIDLMDPAKYASVDTYDREQVMKIIDEFKIPTVEQWKDQTRRYKESSIQIGNGHGQSQGLE
KPGAPWWKSAVFYQVYPRSFKDTNGDGIGDFKGLTEKLDYLKGLGIDAIWINPHYASPNTDNGYDISDYREVMKEYGTMEDFDRLMAELKKRGMRLMVDVVINHSSDQHEWFKSSRASKDNPYRDYYFWRDGKDGHEPNNYPSFFGGSAWEKDPVTGQYYLHYFGRQQPDLNWDTPKLREELYAMLRFWLDKGVSGMRFDTVATYSKTPGFPDLTPEQMKNFAEAYTQGPNLHRYLQEMHEKVFDHYDAVTAGEIFGAPLNQVPLFIDSRRKELDMAFTFDLIRYDRALDRWHTIPRTLADFRQTIDKVDAIAGEYGWNTFFLGNHDNPRAVSHFGDDRPQWREASAKALATVTLTQRGTPFIFQGDELGMTNYPFKTLQDFDDIEVKGFFQDYVETGKATAEELLTNVALTSRDNARTPFQWDDSANAGFTTGKPWLKVNPNYTEINAAREIGDPKSVYSFYRNLISIRHETPALSTGSYRDIDPSNADVYAYTRSQDGETYLVVVNFKAEPRSFTLPDGMHIAETLIESSSPAAPAAGAASLELQPWQSGIYKVK
NKMAMIDLAKLFLASKITAIEFSERICVERRRLYGVKDLSPNILNCGEELFMAAERFEPDADRANYEIDDNGLKVEVRSILEKFKLHHHHH
MRGSHHHHHHGMTIFEKKPDFTLFLQTLSWEIDDQVGIEVRNELLREVGRGMGTRIMPPPCQTVDKLQIELNALLALIGWGTVTLELLSEDQSLRIVHENLPQVGSAGEPSGTWLAPVLEGLYGRWVTSQAGAFGDYVVTRDVDAEDLNAVPRQTIIMYMRVRSSAT
MSPKSLLITGANRGIGLGLLKQFLKHKDIQIIIATCRDPSKAEELSNLKDSRLHILPLDIDCDESISKLYAEVEKLVGEDGLTVLLNNAGILLPYDVEGEKNRKTLIRQLETNSVSTALITQEFLPLLKKAAAKNGGDGYSINRAAIVNISSTAASVEKIDGTFNGPLVAYRMSKSALNSFAKSCSIDLAKYHILVTSFCPGWVKTGMGGANAMLEIEDATKTLSDNILTLGNAHHGAYLNADLTVIPN
MKKIAIFGSRHKSEQGASIKALILKLEEAGTPLYIERKFLSFLKQDLDFHPAICGVIDTLPEHIDYVICMGGDGTFLRTAHQIGVSQIPVLGVNTGRLGFLTDVDCHEASELITRLLDGDFTIETRSLLEVTEDNGSSPSYALNEAAILKRETGSMIRVNACLNDDYLAAYDADGLVVATPSGSTAYSLSGNGPIIMPACRNFVLTPIAPHSLNMRPLVVPDDTVIRLEVDSRSRNYLLVLDGRTRTLPCDTSILLKRAPHTLRMIRLRPHSFAETLRRKLMWGAAVRLEHHHHHH
MGILSDKDIAYLKDLFGKELKRKVKIVFFKTEDKTRCQYCEITEQVLEELVSVDPKLELEIHDFDSDKEAVEKYQVEMVPATILLPEDGKDYGIRFYGVPSGHEFGTLIQDIITVSEGKPQLSEESIQKLQSLEEPIRISVFVTPTCPYCPRAVLMAHNMAMASDKIIGEMIEANEYWELSEKFGVSSVPHIVVNRDPSKFFVGAYPEKEFINEVLRLAKG
MKVTIIGASGRVGSATALLLAKEPFMKDLVLIGREHSINKLEGLREDIYDALAGTRSDANIYVESDENLRIIDESDVVIITSGVPRKEGMSRMDLAKTNAKIVGKYAKKIAEICDTKIFVITNPVDVMTYKALVDSKFERNQVFGLGTHLDSLRFKVAIAKFFGVHIDEVRTRIIGEHGDSMVPLLSATSIGGIPIQKFERFKELPIDEIIEDVKTKGEQIIRLKGGSEFGPAAAILNVVRCIVNNEKRLLTLSAYVDGEFDGIRDVCIGVPVKIGRDGIEEVVSIELDKDEIIAFRKSAEIIKKYCEEVKNL
MSLKIIVIGGGAAGMSAASKAKRVNPDSEVIVVESGSYVSYAECGIPYYLQGVVGHIEDLLHYPLSEFTEKRGIKVLLHTTVTRIDTLHSSVLLNNGDVLKYDRLIIATGSRPKPIDVISDRTISIRSLESAMRARNLIEKSKDVTIVGAGVLGVELASVLAESGKNVKVISKYDRVLPQLDEDIGKIFHEYFSSRIDVQKQSSLKSAEEDRGRVKITTSVDDHECDAVIYATGIIPNSEIAVEAGIKTGDRNAILTNGHMETSEPGVYAAGDVATVRNIVTGLDEMMPLAQIANKAGRVAGSNASNSEMVFPGALGTTLVKVFDYEVGFTGINESRAKALGIPYEKTLIKAKSRANYYPGKQDIYVKIIYGKNDKRLLGAQVIGTDGAAWRLNTIATAIFGGFKVSDLFYDDLGYTPPFGPVWDSIVIAGSVSMREGHHHHHH
MSLKISAIELYEYDLTYSHGTYVMSKGRSAKQQPSNLVRVITDSGIEGWGEAATLSGNYLPVFAGSTRAALRELAPLLIGQDPRGSTHLQRLMSSLLMGQANAKNAFDVACWDIFGKSVDLPISALIGGVLSTELPIFEAVPLSSTEESLDYIGKRSAQGIMRYQIKIGDDPVKDAARARAIVKAFPDIFFFVDANAGYTLLEAQIAMRALDDTNLYVEQPCRDIADCAMLRKISGLPIVLDEAVLTHADLYRAKYEVSAAAVNIKLGRLGGITPAVAMRNAAQDLGMHFCIEDVWGGDVTAAAVSHVAASAFPENLMHTSFFNDWTNEHVAGYQPRSRNGRGAAPTGPGLGITVDRSLLGAPVASFSEGHHHHHH
MAAVVKSVALAGRPTTPDRVHEVLGRSMLVDGLDIVLDLTRSGGSYLVDAITGRRYLDMFTFVASSALGMNPPALVDDREFHAELMQAALNKPSNSDVYSVAMARFVETFARVLGDPALPHLFFVEGGALAVENALKAAFDWKSRHNQAHGIDPALGTQVLHLRGAFHGRSGYTLSLTNTKPTITARFPKFDWPRIDAPYMRPGLDEPAMAALEAEALRQARAAFETRPHDIACFVAEPIQGEGGDRHFRPEFFAAMRELCDEFDALLIFDEVQTGCGLTGTAWAYQQLDVAPDIVAFGKKTQVCGVMAGRRVDEVADNVFAVPSRLASTWGGNLTDMVRARRILEVIEAEGLFERAVQHGKYLRARLDELAADFPAVVLDPRGRGLMCAFSLPTTADRDELIRQLWQRAVIVLPAGADTVRFRPPLTVSTAEIDAAIAAVRSALPVVT
SFLSEAGARPRAGEISASERRKWVEVFKACDEDNKGYLSREDFKVAIVMLFGYKPSKIEADAVMSSANPDTSGVSLEGFLNVVQRKKEAQLYRNEIRHIFTAFDVHYRGFLTLEDFKRAFSQVAPKLPSRTVLEVFREADQDSDGHVSFRDFEYAMNHGKAK
